This note sets out measurements from patent US20210371461.

This data set deals with T1, MePEG2-IEGR (TFA salt).
T1 chain: IEGR

B1: factor XIIa (protein)
chain: IPPWEAPKEHKYKAEEHTVVLTVTGEPCHFPFQYHRQLYHKCTHKGRPGPQPWCATTPNFDQDQRWGYCLEPKKVKDHCSKHSPCQKGGTCVNMPSGPHCLCPQHLTGNHCQKEKCFEPQLLRFFHKNEIWYRTEQAAVARCQCKGPDAHCQRLASQACRTNPCLHGGRCLEVEGHRLCHCPVGYTGAFCDVDTKASCYDGRGLSYRGLARTTLSGAPCQPWASEATYRNVTAEQARNWGLGGHAFCRNPDNDIRPWCFVLNRDRLSWEYCDLAQCQTPTQAAPPTPVSPRLHVPLMPAQPAPPKPQPTTRTPPQSQTPGALPAKREQPPSLTRNGPLSCGQRLRKSLSSMTRVVGGLVALRGAHPYIAALYWGHSFCAGSLIAPCWVLTAAHCLQDRPAPEDLTVVLGQERRNHSCEPCQTLAVRSYRLHEAFSPVSYQHDLALLRLQEDADGSCALLSPYVQPVCLPSGAARPSETTLCQVAGWGHQFEGAEEYASFLQEAQVPFLSLERCSAPDVHGSSILPGMLCAGFLEGGTDACQGDSGGPLVCEDQAAERRLTLQGIISWGSGCGDRNKPGVYTDVAYYLAWIREHTVS
For the protein B1, the “luminescence signal (RLU) from substrate cleavage, 145 nM enzyme” value stood at 145 nM FXlla yielded ˜500 RLU.

B2: tissue-type plasminogen activator (protein)
chain: SYQVICRDEKTQMIYQQHQSWLRPVLRSNRVEYCWCNSGRAQCHSVPVKSCSEPRCFNGGTCQQALYFSDFVCQCPEGFAGKCCEIDTRATCYEDQGISYRGTWSTAESGAECTNWNSSALAQKPYSGRRPDAIRLGLGNHNYCRNPDRDSKPWCYVFKAGKYSSEFCSTPACSEGNSDCYFGNGSAYRGTHSLTESGASCLPWNSMILIGKVYTAQNPSAQALGLGKHNYCRNPDGDAKPWCHVLKNRRLTWEYCDVPSCSTCGLRQYSQPQFRIKGGLFADIASHPWQAAIFAKHRRSPGERFLCGGILISSCWILSAAHCFQERFPPHHLTVILGRTYRVVPGEEEQKFEVEKYIVHKEFDDDTYDNDIALLQLKSDSSRCAQESSVVRTVCLPPADLQLPDWTECELSGYGKHEALSPFYSERLKEAHVRLYPSSRCTSQHLLNRTVTDNMLCAGDTRSGGPQANLHDACQGDSGGPLVCLNDGRMTLVGIISWGLGCGQKDVPGVYTKVTNYLDWIRDNMRP
For B2, the “luminescence signal (RLU) from substrate cleavage, 193 IU/mL enzyme” value is recorded as 193 IU/mL tPA yielded ˜6.000 RLU.

B3: plasmin (protein)
chain: KVYLSECKTGNGKNYRGTMSKTKNGITCQKWSSTSPHRPRFSPATHPSEGLEENYCRNPDNDPQGPWCYTTDPEKRYDYCDILECEEECMHCSGENYDGKISKTMSGLECQAWDSQSPHAHGYIPSKFPNKNLKKNYCRNPDRELRPWCFTTDPNKRWELCDIPRCTTPPPSSGPTYQCLKGTGENYRGNVAVTVSGHTCQHWSAQTPHTHNRTPENFPCKNLDENYCRNPDGKRAPWCHTTNSQVRWEYCKIPSCDSSPVSTEQLAPTAPPELTPVVQDCYHGDGQSYRGTSSTTTTGKKCQSWSSMTPHRHQKTPENYPNAGLTMNYCRNPDADKGPWCFTTDPSVRWEYCNLKKCSGTEASVVAPPPVVLLPDVETPSEEDCMFGNGKGYRGKRATTVTGTPCQDWAAQEPHRHSIFTPETNPRAGLEKNYCRNPDGDVGGPWCYTTNPRKLYDYCDVPQCAAPSFDCGKPQVEPKKCPGRVVGGCVAHPHSWPWQVSLRTRFGMHFCGGTLISPEWVLTAAHCLEKSPRPSSYKVILGAHQEVNLEPHVQEIEVSRLFLEPTRKDIALLKLSSPAVITDKVIPACLPSPNYVVADRTECFITGWGETQGTFGAGLLKEAQLPVIENKVCNRYEFLNGRVQSTELCAGHLAGGTDSCQGDSGGPLVCFEKDKYILQGVTSWGLGCARPNKPGVYVRVSRFVTWIEGVMRNN
In the case of B3, the “luminescence signal (RLU) from substrate cleavage, 8 nM enzyme” value was 8 nM plasmin yielded ˜8.000 RLU.
